According to patent publication US20240002497A1 (Merck Sharp & Dohme, published 2024):

How the values were obtained:
[1] = target: T1, huNav1.7α+β1 (human, UniProt Q15858 1-1988; Q07699 19-218); test: binding FACS, HEKa/β1 cells
T1 construct: also called huNav1.7-beta1; HEKa/β1
How it was run: (§1)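 Cells are first suspended in FACS buffer at 1×10^5 per well. Next, FLAG3-tagged ISVD is added for 30 minutes at 4° C, and binding is then detected with murine anti-Flag. Finally, samples go into 1 μg/mL propidium iodide before flow cytometry.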

[2] = target: T2, huNav1.7α+β1-β2-β3 (human, UniProt Q15858 1-1988; Q07699 19-218; O60939 30-215; Q9NY72 23-215); test: binding FACS, CHO FlpIn cells
T2 construct: 5N11S variant; also called huNav1.7-beta1-beta2-beta3; huNav1.7α+Navβ1-Navβ2-Navβ3
How it was run: as §1

[3] = target: T3, huNav1.7α (human, UniProt Q15858 1-1988); test: binding FACS, HEKa cells
T3 construct: HEK cells expressing the α subunit alone; also called HEKa; HEK huNav1.7α
Description: (§2) Binding of the ISVDs to cell-expressed Nav1.7α was detected via murine anti-Flag (Sigma, catalog #F1804). Briefly, cells were resuspended in FACS buffer (PBS, 10% FBS, NaN₃) and transferred to a 96-well V-bottom plate at 1×10^5 cells/well. Purified FLAG3-tagged ISVD was diluted in FACS buffer and added to the cells for 30 minutes at 4° C. […] Prior to the read-out, the samples were resuspended in 1 μg/mL propidium iodide (Sigma, catalog #P4170) to exclude dead cells. Between each step, the cells were centrifuged for 5 minutes at 200 grams and washed with 100 μL/well FACS buffer.

[4] = target: T4, rhNav1.7α + β1-β2-β3 (rhesus monkey); test: binding FACS, CHO FlpIn
T4 construct: also called rhNav1.7-beta1-beta2-beta3; rhNav1.7-β1-β2-β3
How it was run: as §1

[5] = target: T5, huNav1.7α + β1-β2-β3 (human, UniProt Q15858 1-1988; A5A6L6 19-218; O60939 30-215; Q2KI11 23-215); test: binding FACS, CHO FlpIn
T5 construct: also called huNav1.7-beta1-beta2-beta3; huNav1.7-β1-β2-β3
How it was run: as §1

[6] = target: T6, muNav1.7α (murine, UniProt Q62205 1-1984); test: binding FACS, HEK JmpIn
T6 construct: HEK JmpIn cells; also called murine Nav1.7α
Description: as §2

Row | Binder | EC50 [1] | EC50 [2] | EC50 [3] | EC50 [4] | Bmax [5] | EC50 [5] | EC50 [6] | Bmax [4] | Bmax [6]
1 | F010301314 (VHH, vs 387G05: D23A) VHH: EVQLVESGGGLVQAGGSLRLSCAASGRILRIGYMRWHRQGAGKQREFVARITDDSATDYADSVKGRFTISRDNAKNTVYLQMNNLNPEDTAVYYCEALVTASVRGGSIHSGTYWGRGTLVTVSS | 1.8 nM | 3.5 nM | 1.9 nM | – | – | – | – | – | –
2 | F010301344 (VHH, vs 387G05: D54G) VHH: EVQLVESGGGLVQAGGSLRLSCDASGRILRIGYMRWHRQGAGKQREFVARITDGSATDYADSVKGRFTISRDNAKNTVYLQMNNLNPEDTAVYYCEALVTASVRGGSIHSGTYWGRGTLVTVSS | 2.1 nM | 4.2 nM | 1.3 nM | – | – | – | – | – | –
3 | F010301367 (VHH, vs 387G05: D53G) VHH: EVQLVESGGGLVQAGGSLRLSCDASGRILRIGYMRWHRQGAGKQREFVARITGDSATDYADSVKGRFTISRDNAKNTVYLQMNNLNPEDTAVYYCEALVTASVRGGSIHSGTYWGRGTLVTVSS | 1.9 nM | 4.2 nM | 2.2 nM | – | – | – | – | – | –
4 | F010302337 (VHH) VHH: EVQLVESGGGVVQPGGSLRLSCAASHRQFIRDVFTGWYRRAPGKQRELVARIYEGGNTQYADSAKGRFTISRDNAKKTVYLQMNSLRPEDTALYYCLFSGTISTGREYRSGDYWGQGTLVTVSS | – | – | – | 6.8 nM | 100% | 3.9 nM | – | 100% | 74%
5 | F010301893 (VHH, also called F0103464B09(L11V, E44Q, S68T, T79Y, R81Q, S82aN, N82bS, K83R, G88A, V89L)) VHH: EVQLVESGGGVVQPGGSLRLSCATTSRAFIRDVFTGWYRRVPGKQRELVARIYNGGNTNYADFAKGRFTISRDNAKKMVYLQMNSLRPEDTALYYCLFSGTINTGREYRSGDYWGQGTLVTVSS | – | – | – | 21 nM | 100% | 5.8 nM | 3.6 nM | – | –
6 | F010301935 (VHH, also called F0103464B09(L11V, T79Y, K83R, V89L)) VHH: EVQLVESGGGVVQPGGSLRLSCATTSRAFIRDVFTGWYRRVPGKERELVARIYNGGNTNYADFAKGRFSISRDNAKKMVYLRMSNLRPEDTGLYYCLFSGTINTGREYRSGDYWGQGTLVTVSS | – | – | – | 27 nM | 94% | 3.8 nM | 5.5 nM | – | –
7 | F010301933 (VHH, also called F0103464B09(L11V, S68T, K83R, V89L)) VHH: EVQLVESGGGVVQPGGSLRLSCATTSRAFIRDVFTGWYRRVPGKERELVARIYNGGNTNYADFAKGRFTISRDNAKKMVTLRMSNLRPEDTGLYYCLFSGTINTGREYRSGDYWGQGTLVTVSS | – | – | – | 21 nM | 94% | 4.4 nM | 5.3 nM | – | –
8 | F010301934 (VHH, also called F0103464B09(L11V, M77T, K83R, V89L)) VHH: EVQLVESGGGVVQPGGSLRLSCATTSRAFIRDVFTGWYRRVPGKERELVARIYNGGNTNYADFAKGRFSISRDNAKKTVTLRMSNLRPEDTGLYYCLFSGTINTGREYRSGDYWGQGTLVTVSS | – | – | – | 21 nM | 96% | 4.3 nM | 4.5 nM | – | –
9 | F010301939 (VHH, also called F0103464B09(L11V, K83R, G88A, V89L)) VHH: EVQLVESGGGVVQPGGSLRLSCATTSRAFIRDVFTGWYRRVPGKERELVARIYNGGNTNYADFAKGRFSISRDNAKKMVTLRMSNLRPEDTALYYCLFSGTINTGREYRSGDYWGQGTLVTVSS | – | – | – | 22 nM | 96% | 5.1 nM | 6.3 nM | – | –
10 | F010301875 (VHH, also called F0103464B09(L11V, F62S, S68T, T79Y, R81Q, S82aN, N82bS, K83R, G88A, V89L)) VHH: EVQLVESGGGVVQPGGSLRLSCATTSRAFIRDVFTGWYRRVPGKERELVARIYNGGNTNYADSAKGRFTISRDNAKKMVYLQMNSLRPEDTALYYCLFSGTINTGREYRSGDYWGQGTLVTVSS | – | – | – | 52 nM | 100% | 6.4 nM | 14 nM | – | –

Results, then the binder that gave them:

Row | EC50 [1] | EC50 [2] | EC50 [3] | EC50 [4] | Bmax [5] | EC50 [5] | EC50 [6] | Bmax [4] | Bmax [6] | Binder
11 | 1.7 nM | 3.5 nM | 1.6 nM | – | – | – | – | – | – | F010301350 (VHH, vs 387G05: D58V) VHH: EVQLVESGGGLVQAGGSLRLSCDASGRILRIGYMRWHRQGAGKQREFVARITDDSATVYADSVKGRFTISRDNAKNTVYLQMNNLNPEDTAVYYCEALVTASVRGGSIHSGTYWGRGTLVTVSS
12 | 1.6 nM | 3.4 nM | 1.5 nM | – | – | – | – | – | – | F010301346 (VHH, vs 387G05: D58G) VHH: EVQLVESGGGLVQAGGSLRLSCDASGRILRIGYMRWHRQGAGKQREFVARITDDSATGYADSVKGRFTISRDNAKNTVYLQMNNLNPEDTAVYYCEALVTASVRGGSIHSGTYWGRGTLVTVSS
13 | – | – | – | 55 nM | 100% | 6.5 nM | 18 nM | – | – | F010301874 (VHH, also called F0103464B09(L11V, V40A, S68T, T79Y, R81Q, S82aN, N82bS, K83R, G88A, V89L)) VHH: EVQLVESGGGVVQPGGSLRLSCATTSRAFIRDVFTGWYRRAPGKERELVARIYNGGNTNYADFAKGRFTISRDNAKKMVYLQMNSLRPEDTALYYCLFSGTINTGREYRSGDYWGQGTLVTVSS
14 | – | – | – | 9.6 nM | 100% | 4.6 nM | 14 nM | 100% | 48% | F010302347 (VHH) VHH: EVQLVESGGGVVQPGGSLRLSCAASHRAFIRDVFTGWYRQAPGKQRELVARIYEGGNTQYADSAKGRFTISRDNAKKTVYLQMNSLRPEDTALYYCLFSGTISTGREYRSGDYWGQGTLVTVSS
15 | – | – | – | 6.8 nM | 100% | 3.5 nM | 21 nM | 97% | 30% | F010302355 (VHH) VHH: EVQLVESGGGVVQPGGSLRLSCAASHRAFIRDVFTGWYRRAPGKQRELVARIYEGGNTQYADSVKGRFTISRDNAKKTVYLQMNSLRPEDTALYYCLFSGTISTGREYRSGDYWGQGTLVTVSS
16 | – | – | – | 6.8 nM | 100% | 4.3 nM | 8.7 nM | 100% | 61% | F010302339 (VHH) VHH: EVQLVESGGGVVQPGGSLRLSCAASHRAFIRDVFTGWYRRAPGKQRELVARIYEGGNTQYADSAKGRFTISRDNAKKTVYLQMNSLRPEDTALYYCLFSGTISTGREYRSGDYWGQGTLVTVSS
17 | – | – | – | 26 nM | 95% | 4.4 nM | 4.8 nM | – | – | F010301936 (VHH, also called F0103464B09(L11V, R81Q, K83R, V89L)) VHH: EVQLVESGGGVVQPGGSLRLSCATTSRAFIRDVFTGWYRRVPGKERELVARIYNGGNTNYADFAKGRFSISRDNAKKMVTLQMSNLRPEDTGLYYCLFSGTINTGREYRSGDYWGQGTLVTVSS
18 | – | – | – | 110 nM | 100% | 6.3 nM | 23 nM | – | – | F010301876 (VHH, also called F0103464B09(L11V, A63V, S68T, T79Y, R81Q, S82aN, N82bS, K83R, G88A, V89L)) VHH: EVQLVESGGGVVQPGGSLRLSCATTSRAFIRDVFTGWYRRVPGKERELVARIYNGGNTNYADFVKGRFTISRDNAKKMVYLQMNSLRPEDTALYYCLFSGTINTGREYRSGDYWGQGTLVTVSS
19 | – | – | – | 96 nM | 100% | 13 nM | 39 nM | – | – | F010301877 (VHH, also called F0103464B09(L11V, S68T, K76N, T79Y, R81Q, S82aN, N82bS, K83R, G88A, V89L)) VHH: EVQLVESGGGVVQPGGSLRLSCATTSRAFIRDVFTGWYRRVPGKERELVARIYNGGNTNYADFAKGRFTISRDNAKNMVYLQMNSLRPEDTALYYCLFSGTINTGREYRSGDYWGQGTLVTVSS
20 | – | – | – | 20 nM | 97% | 4.8 nM | 4.7 nM | – | – | F010301938 (VHH, also called F0103464B09(L11V, N82bS, K83R, V89L)) VHH: EVQLVESGGGVVQPGGSLRLSCATTSRAFIRDVFTGWYRRVPGKERELVARIYNGGNTNYADFAKGRFSISRDNAKKMVTLRMSSLRPEDTGLYYCLFSGTINTGREYRSGDYWGQGTLVTVSS
21 | – | – | – | 17 nM | 94% | 4.3 nM | 4.8 nM | – | – | F010301932 (VHH, also called F0103464B09(L11V, K83R, V89L)) VHH: EVQLVESGGGVVQPGGSLRLSCATTSRAFIRDVFTGWYRRVPGKERELVARIYNGGNTNYADFAKGRFSISRDNAKKMVTLRMSNLRPEDTGLYYCLFSGTINTGREYRSGDYWGQGTLVTVSS
22 | – | – | – | 20 nM | 95% | 4.3 nM | 4.8 nM | – | – | F010301937 (VHH, also called F0103464B09(L11V, S82aN, K83R, V89L)) VHH: EVQLVESGGGVVQPGGSLRLSCATTSRAFIRDVFTGWYRRVPGKERELVARIYNGGNTNYADFAKGRFSISRDNAKKMVTLRMNNLRPEDTGLYYCLFSGTINTGREYRSGDYWGQGTLVTVSS
